# According to paper PMC11058820:
# Biological target: HLA-A*11:01 monomer (commercial, biotinylated, preloaded with a UV-sensitive peptide that is destroyed by UV) (human)
# Test: ELISA; UV-mediated peptide exchange: 25 μM peptide in PBS mixed 1:1 with […] biotinylated UV-sensitive HLA-A*11:01 monomer on ice, 366 nm UV 30 min; stable monomers captured on streptavidin plates and detected with HRP anti-human β2-microglobulin; result as percentage of positive signal against positive and negative control peptides
binder,measurement,value
VVGAGGVGK [KRAS_(8–16)^WT peptide],percentage of positive signal,46.6%
